The values that follow come from IntAct's records for PubMed 10487758.

B1: Protein E6 (Human papillomavirus type 16), P03126 (parent)
chain: MHQKRTAMFQDPQERPRKLPQLCTELQTTIHDIILECVYCKQQLLRREVYDFAFRDLCIVYRDGNPYAVCDKCLKFYSKISEYRHYCYSLYGTTLEQQYNKPLCDLLIRCINCQKPLCPEEKQRHLDKKQRFHNIRGRWTGRCMSCCRSSRTRRETQL

The variants in the first experiment derive from B1. The conditions noted are these: with ep300_human EP300, Q09472.
Sequence of ep300_human EP300, Q09472 (Q09472 whole entry): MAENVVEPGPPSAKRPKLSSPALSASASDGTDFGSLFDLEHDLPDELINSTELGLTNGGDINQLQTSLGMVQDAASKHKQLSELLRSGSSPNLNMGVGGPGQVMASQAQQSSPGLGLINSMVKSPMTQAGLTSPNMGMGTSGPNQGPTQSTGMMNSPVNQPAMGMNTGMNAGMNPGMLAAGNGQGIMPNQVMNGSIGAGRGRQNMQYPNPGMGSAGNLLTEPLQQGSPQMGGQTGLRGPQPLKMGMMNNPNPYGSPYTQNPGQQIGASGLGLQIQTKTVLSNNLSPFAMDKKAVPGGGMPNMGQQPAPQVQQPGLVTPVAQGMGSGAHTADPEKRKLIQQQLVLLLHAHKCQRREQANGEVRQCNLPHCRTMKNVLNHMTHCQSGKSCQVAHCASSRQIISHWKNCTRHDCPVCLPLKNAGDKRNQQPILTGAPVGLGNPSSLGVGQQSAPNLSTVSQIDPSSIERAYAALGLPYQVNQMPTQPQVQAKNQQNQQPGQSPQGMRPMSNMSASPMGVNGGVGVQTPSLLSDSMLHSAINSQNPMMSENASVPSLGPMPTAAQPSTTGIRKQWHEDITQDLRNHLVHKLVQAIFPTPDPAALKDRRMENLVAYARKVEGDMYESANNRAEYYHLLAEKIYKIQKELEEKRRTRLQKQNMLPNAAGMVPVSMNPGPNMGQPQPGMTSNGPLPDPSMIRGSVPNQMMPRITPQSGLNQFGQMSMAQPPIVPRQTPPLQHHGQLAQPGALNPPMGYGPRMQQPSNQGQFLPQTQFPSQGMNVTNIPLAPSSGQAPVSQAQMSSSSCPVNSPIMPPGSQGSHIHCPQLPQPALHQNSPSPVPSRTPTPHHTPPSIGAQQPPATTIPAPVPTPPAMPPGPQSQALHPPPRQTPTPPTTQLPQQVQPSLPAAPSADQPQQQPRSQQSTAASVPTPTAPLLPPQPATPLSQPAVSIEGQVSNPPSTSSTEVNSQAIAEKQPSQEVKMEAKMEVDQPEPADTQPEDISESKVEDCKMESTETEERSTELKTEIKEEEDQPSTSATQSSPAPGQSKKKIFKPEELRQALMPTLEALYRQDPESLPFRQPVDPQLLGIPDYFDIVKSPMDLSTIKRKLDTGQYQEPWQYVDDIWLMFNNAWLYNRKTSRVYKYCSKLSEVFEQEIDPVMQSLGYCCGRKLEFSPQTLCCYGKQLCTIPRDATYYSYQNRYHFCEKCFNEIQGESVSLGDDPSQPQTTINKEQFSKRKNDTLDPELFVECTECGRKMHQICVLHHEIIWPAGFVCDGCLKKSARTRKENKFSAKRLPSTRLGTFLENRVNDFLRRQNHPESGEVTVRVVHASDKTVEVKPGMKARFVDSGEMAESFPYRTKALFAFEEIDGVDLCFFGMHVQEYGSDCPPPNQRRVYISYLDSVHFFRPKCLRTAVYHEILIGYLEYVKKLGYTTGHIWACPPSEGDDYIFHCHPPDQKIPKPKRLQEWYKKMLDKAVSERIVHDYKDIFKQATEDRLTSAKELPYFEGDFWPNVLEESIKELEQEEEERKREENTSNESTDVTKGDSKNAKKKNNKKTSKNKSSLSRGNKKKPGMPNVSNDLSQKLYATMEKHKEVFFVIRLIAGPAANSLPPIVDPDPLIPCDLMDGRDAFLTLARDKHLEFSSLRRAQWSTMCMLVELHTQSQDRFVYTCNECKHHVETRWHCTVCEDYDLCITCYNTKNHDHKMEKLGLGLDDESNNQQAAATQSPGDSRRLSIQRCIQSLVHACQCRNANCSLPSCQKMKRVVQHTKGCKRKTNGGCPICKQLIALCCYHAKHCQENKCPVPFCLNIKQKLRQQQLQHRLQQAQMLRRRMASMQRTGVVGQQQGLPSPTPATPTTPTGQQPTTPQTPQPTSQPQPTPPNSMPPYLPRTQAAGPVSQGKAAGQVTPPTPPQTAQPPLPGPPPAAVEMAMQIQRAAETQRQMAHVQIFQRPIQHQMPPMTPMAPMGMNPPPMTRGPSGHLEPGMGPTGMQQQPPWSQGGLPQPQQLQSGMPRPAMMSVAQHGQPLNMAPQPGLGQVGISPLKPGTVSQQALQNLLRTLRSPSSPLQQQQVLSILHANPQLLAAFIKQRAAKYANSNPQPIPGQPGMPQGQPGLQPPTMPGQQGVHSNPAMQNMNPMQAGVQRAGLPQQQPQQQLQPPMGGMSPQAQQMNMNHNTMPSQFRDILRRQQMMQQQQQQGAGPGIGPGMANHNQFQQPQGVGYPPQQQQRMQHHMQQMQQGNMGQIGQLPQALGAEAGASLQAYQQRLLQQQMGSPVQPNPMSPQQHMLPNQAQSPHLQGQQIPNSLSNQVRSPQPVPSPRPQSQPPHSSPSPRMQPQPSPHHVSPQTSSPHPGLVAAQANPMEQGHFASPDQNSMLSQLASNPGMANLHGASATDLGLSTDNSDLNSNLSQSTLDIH
On to C73G;C143G, for which the “effect of a mutation on the interaction” value is on record as “disrupting interaction”.
As to F52Y;F54Y;D56H, the “effect of a mutation on the interaction” value is listed as “decreasing interaction”.
Still for that read-out and setting: for R15S;P16A;R17T the value was “decreasing interaction”.

Variants of B1 are the subject of a further experiment. The conditions noted are these: with ep300_human EP300, Q09472. This is another data set of the same source.
With F52Y;F54Y;D56H, the “effect of a mutation on the interaction” value is given as “disrupting interaction”.
